The text below walks through data of PMC4503318 (Chemistry & biology, 2015).

Series [1] deals with the molecule itself. Put plainly: crystal structure.
Series [2] deals with the molecule itself. Put plainly: crystal structure. The source holds these as a separate data set.

Where two headings read alike, the source gives them in different places.

B1: Plasmodium falciparum lysyl-tRNA synthetase (PfLysRS), residues 77-583 (enzyme)
chain: not shown
For B1, the binding result in the series “crystal structure [1]” is “binds”.

B2: Pf-like human LysRS (human LysRS 70-584 with P300T, Q321V, T337S) (enzyme)
chain: not shown
Turning to B2, the binding result in the series “crystal structure [2]” is given as “binds”.
